Measurements taken from article PMC9060813, “Protein with negative surface charge distribution, Bnr1, shows characteristics of a DNA‐mimic protein and may be involved in the adaptation of Burkholderia cenocepacia” (MicrobiologyOpen, 2022).

Molecular target: the molecule itself
Assay: SEC-MALS; 800 micrograms of purified rBCAS0292 on S75 16/60 in 50 mM Tris-HCl, 150 mM NaCl, 5% glycerol, pH 7.5; DAWN MALS and Optilab rEX; reducing and oxidizing conditions

B1: recombinant BCAS0292 (Burkholderia negatively surface-charged regulatory protein 1), His-tagged (natural protein, Burkholderia cenocepacia, UniProt B4EQ58 1-179, looked up)
chain: MSGVRCDGLAIVDAVTLLSAYPDASRDADAPTVIDGRHIYVLRPGDAGQVGHNDNRLFAGLSPGDQLHLRETALALRAEVTVLFIRFALKDAGIVAPIEAEIRDAATPVPDGDDLLHPSCRPMKDHFWRSEVLAPGITTCTADFAVLDRDGAVSGYFRWETAIEIAGSRPDTKQPGVEP
notes: BCAS0292 protein (Bnr1), PixA family, Burkholderia cenocepacia; calculated molecular weight 19.2 kDa; no cleavage of the tag is told; also called rBCAS0292; rBnr1; source: E. coli BL21 Star (DE3), purified (lysis in 6 M guanidine-HCl, HisPur Ni-NTA, SEC)
- stoichiometry N: 2
